Positions count from the first letter of the chain named. Ends that are not written are not given here.
Columns and labels:
lettuce eIF4E = biological target: T1, lettuce eIF4E (Lactuca sativa, UniProt A0A2J6L8Y7); test: Peptide affinity from eIF4E intrinsic fluorescence decay; format: binding
T1 construct: to obtain untagged full-length eIF4E and eIF4E∆(1–46); made in house; host or cells: E. coli BL21-AI
Excerpt: (§1) For optical characteristics of the instrument, see [36].

[1] = biological target: lettuce eukaryotic translation initiation factor 4E, eIF4E^0 (susceptible cultivar) (lettuce); test: other fluorescence titration; steady state decrease of eIF4E tryptophan intrinsic fluorescence upon titration by VPg or VPg peptide; 25 °C, 20 mM HEPES pH 7.5, 0.25 mM NaCl, 1 mM DTT
[2] = biological target: lettuce eIF4E N-terminus-deleted form, eIF4E^0 [∆1–46] (lettuce); test: as above
[3] = biological target: lettuce eIF4E^1 (resistant cultivar; ∆(108–110)H and A186S) (lettuce); test: as above
[4] = biological target: lettuce eIF4E^2 (resistant cultivar; A70P) (lettuce); test: as above
[5] = biological target: lettuce eIF4E^1 (resistant cultivar; ∆(108–110)H and A186S) (lettuce); test: other fluorescence titration; as a1, but eIF4E 0.5 µM pre-incubated with m7GTP 2 µM prior to titration by VPg; 25 °C
[6] = biological target: lettuce eIF4E^2 (resistant cultivar; A70P) (lettuce); test: as above
[7] = biological target: lettuce eukaryotic translation initiation factor 4E, eIF4E^0 (susceptible cultivar) (lettuce); test: as above
[8] = biological target: VPg_(88–111)*, doubly labeled fluorescent derivative of VPg_(88–111) (lettuce mosaic virus (LMV strain AF199)); test: other fluorescence titration; steady state titration by eIF4E of 250 nM VPg_(88–111)*, read by the AEDANS to fluorescein resonance energy transfer within the peptide; AEDANS excited at 337 nm; simple bimolecular equilibrium model; 25 °C, 20 mM HEPES pH 7.5, 0.25 mM NaCl, 1 mM DTT
[9] = tested on: lettuce eIF4E (all forms); test: Comparison of VPg / m7GTP binding to eIF4E forms (competition, overall affinity)
Excerpt: as §1

[10] = biological target: lettuce eukaryotic translation initiation factor 4E, eIF4E^0 (susceptible cultivar) (lettuce); test: stopped-flow fluorescence kinetics; quenching of eIF4E tryptophan fluorescence after mixing 0.3 µM eIF4E with peptide (1 µM; 2.5, 5, 7.5 and 10 µM); excitation 283 nm; single exponential fit, kobs
eIF4E = biological target: T2, eIF4E (Lactuca sativa, UniProt A0A2J6L8Y7); test: Stopped-flow kinetics, quenching of eIF4E tryptophan fluorescence; format: binding, lettuce
T2 construct: to obtain untagged full-length eIF4E and eIF4E∆(1–46); made in house; host or cells: E. coli BL21-AI
Description: We hypothesized that the 107–120 region could modulate the mechanism of association, the details of which cannot be grasped through equilibrium thermodynamics. Consequently, fast kinetics measurement were performed by stopped flow to compare VPg88–111 and VPg88–120 association with eIF4E (Figure 3).
(A) The quenching of eIF4E tryptophan fluorescence was monitored after mixing 0.3 µM eIF4E with 1 µM VPg88–111 (final concentration). The excitation wavelength was 283 nm. Inset, plots of 1/kobs versus 1/[peptide] at 2.5, 5, 7.5 and 10 µM peptide concentration. VPg88–111 open circles, VPg88–120, open triangles. (B) Stopped-flow traces of VPg88–111*–eIF4E complex formation acquired at 520 nm upon excitation at 480 nm. VPg88–111*: doubly labeled fluorescent derivative of VPg88–111.
The eIF4E tryptophan fluorescence decrease concomitant to association was monitored for several peptide concentrations (Figure S3). A single exponential model fitted satisfactorily with the experimental data allowing the determination of kobs, the apparent constant of the complex formation.
as §1

[11] = biological target: T3, lettuce eukaryotic translation initiation factor 4E, eIF4E^0 (susceptible cultivar) (lettuce, UniProt A0A2J6L8Y7 1-235)
T3 chain: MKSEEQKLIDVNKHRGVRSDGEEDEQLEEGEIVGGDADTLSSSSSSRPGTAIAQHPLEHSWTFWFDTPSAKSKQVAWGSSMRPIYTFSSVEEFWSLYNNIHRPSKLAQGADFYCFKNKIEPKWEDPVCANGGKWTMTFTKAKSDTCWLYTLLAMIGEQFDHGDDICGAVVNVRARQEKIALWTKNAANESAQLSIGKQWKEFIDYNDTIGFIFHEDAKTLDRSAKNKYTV

LSGGEIESEHMRSG [VPg107–120] showed a Kd (lettuce eIF4E) of 852 ± 57 nM.

With “VFSDIGLVQDAFGKERLKLLSGGEIESEHMRSG [VPg88–120]” the Kd (lettuce eIF4E) was 67 ± 7 nM.

Work on VPg_(107–120) synthetic peptide yielded a Kd [1] of 852 nM.

Molecule “LMV VPg from the non-resistance-breaking strain (LMV0) (natural protein)” has a Kd [2] of 276 nM, a Kd [3] of 340 nM and a Kd [4] of 288 nM. The KD with m7GTP [5] was 632 nM, the KD with m7GTP [6] was 703 nM and the KD with m7GTP [7] was 746 nM.

Molecule “lettuce eukaryotic translation initiation factor 4E, eIF4E^0 (susceptible cultivar) (from UniProt A0A2J6L8Y7 1-235) (natural protein)” has a Kd [8] of 63 nM.

In the case of `Cn1c[n+]([C@@H]2O[C@H](COP(=O)([O-])OP(=O)(O)OP(=O)(O)O)[C@@H](O)[C@H]2O)c2nc(N)[nH]c(=O)c21` [m7GTP], the “competition between VPg and m7GTP” value [9] is reported as “compete for their binding to eIF4E”.

Molecule VPg_(88–120) synthetic peptide has a Kd [1] of 67 nM and a k2 (second step of the two-step model, conformational transition of the bound peptide) [10] of 33 s⁻¹.

In the case of VPg_(88–111) synthetic peptide, the Kd [1] is reported as 72 nM.

In the case of VFSDIGLVQDAFGKERLKLLSGGE [VPg88–111], the “dependence of 1/kobs or kobs on peptide concentration” value (eIF4E; 0.3 µM eIF4E, 2.5, 5, 7.5 and 10 µM peptide, single exponential fit) is reported as “gave a straight line, featuring the pseudo first order nature of the association depending on ligand concentration”, the “kinetic model of complex formation” value (eIF4E; stopped flow, eIF4E tryptophan quenching) is reported as “one-step process” and the “affinity for eIF4E, in words” value (lettuce eIF4E; VPg88–111 versus VPg88–120) is reported as “comparable affinities”.

B1: LMV VPg from the non-resistance-breaking strain (LMV0) (natural protein)
chain: GKGKRQRQKLRYRQARDNKVGIEVYGDDATMEHYFGAAYTEKGKKSGKTKGMGTKNRRFVNMYGYNPEDFSFIRFLDPLTGKTMDEQVFSDISLVQDAFSKERLKLLSEGEIESEHMRNGIRAYLVKNLTTAALEIDMTPHNSCQLGAKTNNIAGYVDREYELRQTGEARVVAPALIPKDNPITDEDIPVKHE
B1 showed a Kd [11] of 202 nM.

B2: whole VPg from LMV-AF199 strain (natural protein)
chain: B1 chain with R58K, S93G, S100G, E109G, N119S, A148I, Y156F
Molecule B2 has a Kd [11] of 82 nM.

Source: article PMC7460627 (International Journal of Molecular Sciences, 2020)
